Entries after “also recorded” stand apart in the source; their conditions may differ.
Columns and labels:
HEK293 cells = assay: Cell toxicity assay (CyQUANT cell viability), HEK293; assay type: cell-based, human; settings: 1 μM, 72 hours
Method: (§1) To evaluate the general cell toxicity of oligomers 6 and 7, a cell viability assay was utilized.
(§2) HEK293 and PC3 cells were seeded in triplicate on 96-well plates (Corning) in DMEM and HAM'S—F media supplemented with 10% FBS, 1% L-Gln and 1% PS, respectively. HEK293 and PC3 cells were then treated with conjugates (1 μM and 20 μM, respectively) and allowed to incubate at 37° C. for 72 hours. Following treatment, relative cell viability was measured using the CyQUANT reagent according to the manufacturer's instructions. Fluorescence intensity was quantified as described above. All data were processed using GraphPad Prism.

PC3 cells = assay: Cell toxicity assay (CyQUANT cell viability), PC3; assay type: cell-based; settings: 20 μM, 72 hours
Method: as §1, §2

LNCaP-abl cells = assay: Cell-cycle distribution by FACS / flow cytometry; assay type: cell-based, human; settings: 1 μM, 48 h
Method: LNCaP-abl cells were grown on 10 cm culture dishes (BD Falcon) to approximately 70% confluence in RPMI media supplemented with 10% charcoal-stripped FBS, 1% L-Gln, and 1% PS. Cells were then treated with conjugate 1 or 2 to a final concentration of 1 μM and allowed to incubate at 37° C. for 48 h. Following treatment, cells were fixed and suspended in 2 mL of 1:3 HBSS:Phosphate-Citrate Buffer (pH 8.0) containing 0.1% Triton X-100. Cells were centrifuged (2,000 rpm for 5 min) and suspended in 1 mL of propidium-iodide solution (1 mg propidium iodine, 10 mg EDTA, 250 μL Igepal, and 2.2 μg μL-1 RNAase in 50 mL of PBS). Cells were then harvested for cell-cycle analysis by filtration (CellTrics, 100 μm) into conical tubes (Falcon) and analyzed by flow cytometry (Becton-Dickinson FACScalibur). All data were analyzed using FlowJo software.
The inventors analyzed cell-cycle distribution of LNCaP-abl cells treated with either oligomer 6 or 7 utilizing fluorescence-activated cell sorting (FACS) analysis. These studies provide a quantitative assessment of normal and apoptotic nuclei along with cell distribution in the G0/G1, S, and G2/M phases of the cell-cycle.

AR = molecular target: T1, AR (Homo sapiens, UniProt P10275, T878A); assay: Chromatin immunoprecipitation of AR at the PSA enhancer in LNCaP-abl cells; assay type: cell-based; settings: R-1881 10 nM alone, positive control
T1 construct: endogenous in cells; host or cells: LNCaP-abl
T1 sequence (P10275 1-920 T878A): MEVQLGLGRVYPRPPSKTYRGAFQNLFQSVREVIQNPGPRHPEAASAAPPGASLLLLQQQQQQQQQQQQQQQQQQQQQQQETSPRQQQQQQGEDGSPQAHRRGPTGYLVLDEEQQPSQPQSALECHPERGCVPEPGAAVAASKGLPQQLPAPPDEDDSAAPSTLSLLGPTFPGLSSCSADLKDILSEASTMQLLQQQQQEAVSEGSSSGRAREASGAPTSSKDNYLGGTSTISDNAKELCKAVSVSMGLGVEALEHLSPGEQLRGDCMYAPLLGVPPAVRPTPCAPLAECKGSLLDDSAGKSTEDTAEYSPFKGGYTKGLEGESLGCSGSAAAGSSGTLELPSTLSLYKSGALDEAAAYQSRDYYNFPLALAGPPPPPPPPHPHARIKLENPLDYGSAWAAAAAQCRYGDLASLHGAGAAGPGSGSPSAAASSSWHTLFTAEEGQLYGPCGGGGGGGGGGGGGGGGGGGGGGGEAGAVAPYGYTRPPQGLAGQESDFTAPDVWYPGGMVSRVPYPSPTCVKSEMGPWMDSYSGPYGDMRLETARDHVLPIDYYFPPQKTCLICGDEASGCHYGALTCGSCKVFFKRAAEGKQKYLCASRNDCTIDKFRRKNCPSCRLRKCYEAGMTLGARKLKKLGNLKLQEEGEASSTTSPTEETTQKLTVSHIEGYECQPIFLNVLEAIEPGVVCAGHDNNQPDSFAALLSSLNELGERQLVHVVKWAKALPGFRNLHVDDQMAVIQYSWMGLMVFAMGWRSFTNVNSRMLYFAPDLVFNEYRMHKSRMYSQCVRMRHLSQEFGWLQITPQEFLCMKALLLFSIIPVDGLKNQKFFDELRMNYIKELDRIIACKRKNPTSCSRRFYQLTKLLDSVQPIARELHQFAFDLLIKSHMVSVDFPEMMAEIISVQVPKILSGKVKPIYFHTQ
Method: Following treatment, proteins were double cross-linked with DSP (Pierce) for 20 min and 1% formalin for 10 min. Cells were lysed, and nuclei were collected, lysed in buffer (1% SDS, 50 mM Tris-HCl (pH 8.0), 10 mM EDTA), and sonicated for 12 min (30 s on, 30 s off) utilizing a Bioruptor sonicator (Diagenode, model XL). Sonicated lysates were precleared for 2 h with Protein A/G agarose beads blocked with salmon sperm DNA (Millipore). […] Control ChIP was concurrently performed with the same quantity of normal mouse and rabbit IgG sera. Immunocomplexes were then washed and cross-linking was reversed. DNA was isolated with a PCR purification kit (Qiagen) according to the manufacturer's instructions, and real-time PCR was performed. Relative enrichment of indicated genomic locus was calculated as a percentage of 4% input normalized to IgG. All data were processed using GraphPad Prism.

| SMILES | cytotoxic effects in HEK293 cells (HEK293 cells) | cytotoxic effects in AR-deficient PC3 cells (PC3 cells) | apoptotic cell population (LNCaP-abl cells) | AR recruitment to the PSA enhancer (AR) |
| --- | --- | --- | --- | --- |
| COCCN1CC(=O)N(CCCn2cc([C@]3(O)CCC4C5CCC6=CC(=O)CC[C@]6(C)C5CC[C@@]43C)nn2)CC(=O)N(CCOC)CC(=O)N(CCOC)CC(=O)N(CCCn2cc([C@]3(O)CCC4C5CCC6=CC(=O)CC[C@]6(C)C5CC[C@@]43C)nn2)CC(=O)N(CCOC)CC1=O (stereo partly shown) [Oligomer 7] | did not exhibit cytotoxic effects; also recorded: cytotoxicity was not observed | did not exhibit cytotoxic effects; also recorded: cytotoxicity was not observed | no increase in the apoptotic cell population |  |
| COCCN(CC(N)=O)C(=O)CN(CCOC)C(=O)CN(CCCn1cc([C@]2(O)CCC3C4CCC5=CC(=O)CC[C@]5(C)C4CC[C@@]32C)nn1)C(=O)CN(CCOC)C(=O)CN(CCOC)C(=O)CN(CCOC)C(=O)CN(CCOC)C(=O)CN(CCOC)C(=O)CN(CCOC)C(=O)CN(CCOC)C(=O)CN(CCOC)C(=O)CNCCCn1cc([C@]2(O)CCC3C4CCC5=CC(=O)CC[C@]5(C)C4CC[C@@]32C)nn1 (stereo partly shown) [Oligomer 6] | did not exhibit cytotoxic effects; also recorded: cytotoxicity was not observed | did not exhibit cytotoxic effects; also recorded: cytotoxicity was not observed | no increase in the apoptotic cell population |  |
| C[C@]1(O)CC[C@H]2[C@@H]3CCC4=CC(=O)CCC4=C3C=C[C@@]21C [Oligomer R-1881] |  |  |  | promoted AR recruitment |
